Columns and labels:
[1] = molecular target: T1, β isoform of PP1c released from rabbit skeletal muscle PP1G (rabbit, UniProt P62143 2-327); experiment: cell-based or functional assay
[2] = molecular target: T1, β isoform of PP1c released from rabbit …; experiment: phosphatase assays and changed crystal form of PP1c
[3] = molecular target: T2, myosin from chicken gizzard, dephosphorylated form (chicken, UniProt P10587 2-1979; P02612 2-172; P02607 2-151); experiment: co-sedimentation with myosin, immunoblot
T2 construct: mature; Native protein pelleted by centrifugation; 1 µM in terms of heavy chains; also called myosin dimer
Method: (§1) (A); PP1_M, $M110$-(M1-S477) and GST-$M110$-(M377-K976), each at 30 nM were incubated for 15 min at 0° C. with 1 μM myosin and centrifuged. The supernatants (S), resuspended pellets (P) and the suspension before centrifugation (T, total) were electrophoresed on 12% SDS/polyacrylamide gels, transferred to nitrocellulose and immunoblotted with antibodies raised against the PP1_M holoenzyme. No protein was pelleted in the absence of myosin (not shown). The positions of the marker proteins myosin heavy chain (200 kDa), glycogen phosphorylase (97 kDa), bovine serum albumin (66 kDa), ovalbumin (43 kDa), carbonic anhydrase (29 kDa) and soybean trypsin inhibitor (20 kDa) are indicated. […] A small amount of $M110$-(R714-I1004) pelleted in the absence of myosin. […] No other protein was pelleted in the absence of myosin.
(§2) Myosin binding assays. Myosin (0.5 mg/ml, 1 µM in terms of myosin heavy chains) in 10 mM Hepes pH 7.5, 50 mM KCl, 5 mM MgCl2, 0.1% (by vol) 2-mercaptoethanol, was mixed with PP1_M, M$21$ subunit, or fragments of the M$110$ and M$21$ subunits, at the concentrations indicated in figure legends. After incubation for 15 min at 0° C., the solutions were centrifuged for 2 min at 13,000×g, the supernatants removed, and the pellets washed twice in 10 mM Hepes pH 7.5, 50 mM KCl, 5 mM MgCl2, 0.1% (by vol) 2-mercaptoethanol before resuspension in 50 mM Tris-HCl pH 7.5, 0.1 mM EGTA, 0.03% (by mass) Brij 35, 0.6 M NaCl, 0.1% (by vol) 2-mercaptoethanol. Aliquots of the supernatant, the resuspended pellet and the suspension before centrifugation were either assayed for myosin P-light chain phosphatase activity or denatured in SDS and analysed by SDS/polyacrylamide gel electrophoresis.

[4] = molecular target: T2, myosin from chicken gizzard, …; experiment: co-sedimentation with myosin
[5] = molecular target: T2, myosin from chicken gizzard, …; experiment: summary of the co-sedimentation experiments
Method: as §1
(§3) Myosin binding assays. Myosin (0.5 mg/ml, 1 µM in terms of myosin heavy chains) in 10 mM Hepes pH 7.5, 50 mM KCl, 5 mM MgCl2, 0.1% (by vol) 2-mercaptoethanol, was mixed with PP1_M, M$21$ subunit, or fragments of the M$110$ and M$21$ subunits, at the concentrations indicated in figure legends. […] Aliquots of the supernatant, the resuspended pellet and the suspension before centrifugation were either assayed for myosin P-light chain phosphatase activity or denatured in SDS and analysed by SDS/polyacrylamide gel electrophoresis.

[6] = molecular target: PP1GL, glycogen-associated form of PP1 in rat hepatic glycogen-protein particles (rat); experiment: cell-based or functional assay
[7] = molecular target: PP1M, myosin-associated form of PP1 from chicken gizzard (chicken, UniProt P62207 2-327); experiment: cell-based or functional assay
[8] = molecular target: T2, myosin from chicken gizzard, …; experiment: co-sedimentation, 30 nM with 1 µM myosin, immunoblot
Method: as §1, §3

[9] = molecular target: T2, myosin from chicken gizzard, …; experiment: co-sedimentation with myosin (as PP1M lacking M21)
Method: The PP1 catalytic subunit (PP1c), PP1_M, or PP1_M lacking the $M21$ subunit, $PP1_M(\Delta M21)$, each at 30 nM, were incubated for 15 min at 0° C. with 1 μM myosin and centrifuged (see Methods of Example 3). […] The results shown are the average (±S.E.M.) for three separate experiments each assayed in duplicate.
as §2

T1 sequence (P62143 2-327): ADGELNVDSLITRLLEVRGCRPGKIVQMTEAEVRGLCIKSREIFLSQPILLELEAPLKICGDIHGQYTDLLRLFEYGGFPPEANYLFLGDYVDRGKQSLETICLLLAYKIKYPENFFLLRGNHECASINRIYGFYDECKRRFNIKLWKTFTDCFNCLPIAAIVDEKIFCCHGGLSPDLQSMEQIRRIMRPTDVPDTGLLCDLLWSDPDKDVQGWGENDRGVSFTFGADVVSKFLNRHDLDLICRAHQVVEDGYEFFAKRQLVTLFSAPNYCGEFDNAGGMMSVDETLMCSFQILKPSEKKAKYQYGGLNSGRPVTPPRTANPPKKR
T2 sequence (P10587 2-1979, chain 1 of 3): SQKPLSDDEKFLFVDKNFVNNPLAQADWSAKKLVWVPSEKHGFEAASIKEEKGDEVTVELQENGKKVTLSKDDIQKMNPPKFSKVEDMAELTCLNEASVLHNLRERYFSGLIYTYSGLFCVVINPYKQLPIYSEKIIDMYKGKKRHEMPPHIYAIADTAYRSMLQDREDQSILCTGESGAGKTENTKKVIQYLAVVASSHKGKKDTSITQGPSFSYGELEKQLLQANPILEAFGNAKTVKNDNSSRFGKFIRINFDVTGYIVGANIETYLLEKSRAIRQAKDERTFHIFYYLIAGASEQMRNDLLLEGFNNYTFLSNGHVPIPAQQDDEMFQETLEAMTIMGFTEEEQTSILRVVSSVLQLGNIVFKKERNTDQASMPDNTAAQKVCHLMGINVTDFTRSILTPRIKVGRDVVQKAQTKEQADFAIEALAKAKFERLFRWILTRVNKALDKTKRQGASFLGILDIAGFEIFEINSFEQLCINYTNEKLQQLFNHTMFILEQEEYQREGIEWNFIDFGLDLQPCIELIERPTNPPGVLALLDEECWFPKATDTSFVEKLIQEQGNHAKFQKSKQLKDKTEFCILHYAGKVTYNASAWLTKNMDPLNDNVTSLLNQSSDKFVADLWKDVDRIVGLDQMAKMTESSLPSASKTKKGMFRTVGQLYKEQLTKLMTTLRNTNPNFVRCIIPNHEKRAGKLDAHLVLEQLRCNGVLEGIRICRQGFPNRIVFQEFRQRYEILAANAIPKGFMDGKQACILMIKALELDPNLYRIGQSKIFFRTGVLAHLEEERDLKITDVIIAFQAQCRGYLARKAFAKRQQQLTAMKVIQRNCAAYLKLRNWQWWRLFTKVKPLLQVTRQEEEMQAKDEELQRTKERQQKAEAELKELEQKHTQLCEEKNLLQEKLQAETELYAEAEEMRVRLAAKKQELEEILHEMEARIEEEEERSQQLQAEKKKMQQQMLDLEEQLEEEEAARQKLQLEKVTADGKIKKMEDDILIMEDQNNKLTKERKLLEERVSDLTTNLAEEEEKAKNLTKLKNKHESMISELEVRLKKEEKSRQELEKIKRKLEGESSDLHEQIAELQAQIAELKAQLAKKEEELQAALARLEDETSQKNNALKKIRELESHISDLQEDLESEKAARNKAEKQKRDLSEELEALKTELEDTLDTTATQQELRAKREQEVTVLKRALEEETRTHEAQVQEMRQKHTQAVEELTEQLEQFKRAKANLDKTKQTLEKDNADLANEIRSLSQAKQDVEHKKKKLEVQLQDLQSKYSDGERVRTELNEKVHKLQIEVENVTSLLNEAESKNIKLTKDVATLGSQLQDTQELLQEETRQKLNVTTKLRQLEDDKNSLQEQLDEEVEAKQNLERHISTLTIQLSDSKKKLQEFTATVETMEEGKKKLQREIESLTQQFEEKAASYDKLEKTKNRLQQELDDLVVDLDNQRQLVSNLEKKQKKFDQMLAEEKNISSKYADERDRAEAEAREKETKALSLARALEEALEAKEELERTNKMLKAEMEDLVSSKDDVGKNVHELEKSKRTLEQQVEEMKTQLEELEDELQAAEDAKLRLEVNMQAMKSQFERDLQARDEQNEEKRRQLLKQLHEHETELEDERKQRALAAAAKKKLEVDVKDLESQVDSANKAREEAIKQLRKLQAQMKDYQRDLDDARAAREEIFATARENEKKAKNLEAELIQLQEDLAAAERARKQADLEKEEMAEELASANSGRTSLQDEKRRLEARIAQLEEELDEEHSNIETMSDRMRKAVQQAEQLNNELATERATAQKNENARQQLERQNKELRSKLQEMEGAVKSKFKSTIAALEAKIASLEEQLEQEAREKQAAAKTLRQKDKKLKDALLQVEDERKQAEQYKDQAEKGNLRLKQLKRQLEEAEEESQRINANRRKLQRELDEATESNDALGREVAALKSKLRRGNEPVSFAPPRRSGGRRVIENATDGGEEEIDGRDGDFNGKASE
T2 sequence (P02612 2-172, chain 2 of 3): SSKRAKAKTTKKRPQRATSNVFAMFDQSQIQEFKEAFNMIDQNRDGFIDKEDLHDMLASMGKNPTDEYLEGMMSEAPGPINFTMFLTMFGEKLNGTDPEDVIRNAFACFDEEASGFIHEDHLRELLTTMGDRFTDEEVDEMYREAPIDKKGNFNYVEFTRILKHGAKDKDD
T2 sequence (P02607 2-151, chain 3 of 3): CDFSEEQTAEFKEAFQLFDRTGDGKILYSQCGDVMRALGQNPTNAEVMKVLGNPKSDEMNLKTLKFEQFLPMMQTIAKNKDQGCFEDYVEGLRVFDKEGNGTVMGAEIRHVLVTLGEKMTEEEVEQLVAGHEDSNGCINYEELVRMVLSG
Chain of PP1M, myosin-associated form of PP1 from chicken gizzard (P62207 2-327): as the sequence (P62143 2-327) above

In the case of MKMADAKQKRNEQLKRWIGSETDLEPPVVKRQKTK [M110[M1-K35] synthetic peptide], the “effectiveness at activating the myosin light chain phosphatase activity of PP1c relative to M110[1-38]” value [1] is reported as ≥ 10000 fold.

B1: GM-(G63-N75) synthetic peptide (peptide)
peptide: GRRVSFADNFGFN
notes: 13-residue peptide co-crystallised with PP1γ1; also called GM[63-75]; GM peptide
B1: binds [2].

GRRVSFADNFGFNLVSVK (also called peptide 63-80 of GM) [GM-(G63-K80) synthetic peptide]: binds [2].

B2: M110-(K933-I1004), C-terminal 72 residues of the chicken gizzard M110 subunit, released from MBP with Factor Xa (other)
chain: KLYEQILAENEKLKAQLHDTNMELTDLKLQLEKTTQRQERFADRSLLEMEKRVSGKSQYLLGGKKSSRKKDI
notes: also called 8.5 kDa M110-(K933-I1004) fragment
B2: no binding (tested: 100 nM with 1 µM myosin) [3].

B3: GST-M110-(M1-E309), GST tag not cleaved (other)
chain: MKMADAKQKRNEQLKRWIGSETDLEPPVVKRQKTKVKFDDGAVFLAACSSGDTDEVLKLLHRGADINYANVDGLTALHQACIDDNVDMVKFLVENGANINQPDNEGWIPLHAAASCGYLDIAEFLIGQGAHVGAVNSEGDTPLDIAEEEAMEELLQNEVNRQGVDIEAARKEEERIMLRDARQWLNSGHISDVRHAKSGGTALHVAAAKGYTEVLKLLIQAGYDVNIKDYDGWTPLHAAAHWGKEEACRILVDNLCDMETVNKVGQTAFDVADEDILGYLEELQKKQNLLHSEKRDKKSPLIESTANMEA
notes: not shown: glutathione-S-transferase of vector pGEX-KG with the vector linker (thrombin site)
B3: no binding [4].

B4: M110-(R714-I1004), C-terminal 291 residues of the chicken gizzard M110 subunit (other)
chain: RSTRTREQENEEKEKEEKEKQDKEKQEEKKESETKDDDYRQRYSRTVEEPYHRYRPTSTSTSTSSTSSLSTSTSSLSSSSQLNRPNSLIGITSAYSRSGTKESEREGGKKEEEKEEDKSQPKSIRERRRPREKRRSTGVSFWTQDSDENEQEHQSDSEEGTNKKETQSDSLSRYDTGSLSVSSGDRYDSAQGRSGSQSYLEDRKPYCSRLEKEDSTDFKKLYEQILAENEKLKAQLHDTNMELTDLKLQLEKTTQRQERFADRSLLEMEKRVSGKSQYLLGGKKSSRKKDI
notes: Expressed from pT7-7
B4: binds [5].

MKMADAKQKRNEQLKRWIGSETDLEPPVVKRQKTKVKF [M110-(M1-F38) synthetic peptide] was tested, and the “concentration for half maximal activation relative to M110-(M1-E309)” value [1] was ≥ 100 fold, the “maximal activation of the myosin light chain phosphatase activity of PP1c” value [1] was 3 fold and the “phosphorylase phosphatase activity of PP1GL at 10 µM peptide” value [6] was 3.5 fold.

B5: M110-(M1-A150), released from GST with thrombin (other)
chain: GSPGMKMADAKQKRNEQLKRWIGSETDLEPPVVKRQKTKVKFDDGAVFLAACSSGDTDEVLKLLHRGADINYANVDGLTALHQACIDDNVDMVKFLVENGANINQPDNEGWIPLHAAASCGYLDIAEFLIGQGAHVGAVNSEGDTPLDIAEEEA
B5 was tested, and the “concentration needed to modify the specificity of PP1, relative to M110-(M1-E309)” value [1] was 10 fold.

With GRRVSFADNFGFNLVSVKEFDTWELPSVSTT [rabbit GM-(G63-T93) synthetic peptide] the “phosphorylase phosphatase activity of PP1GL” value [6] was 6 fold and the “phosphorylase phosphatase activity of PP1M at 10 µM peptide” value [7] was ~7 fold.

B6: GST-M110-(M1-S477) (other)
chain: MKMADAKQKRNEQLKRWIGSETDLEPPVVKRQKTKVKFDDGAVFLAACSSGDTDEVLKLLHRGADINYANVDGLTALHQACIDDNVDMVKFLVENGANINQPDNEGWIPLHAAASCGYLDIAEFLIGQGAHVGAVNSEGDTPLDIAEEEAMEELLQNEVNRQGVDIEAARKEEERIMLRDARQWLNSGHISDVRHAKSGGTALHVAAAKGYTEVLKLLIQAGYDVNIKDYDGWTPLHAAAHWGKEEACRILVDNLCDMETVNKVGQTAFDVADEDILGYLEELQKKQNLLHSEKRDKKSPLIESTANMENNQPQKTFKNKETLIIEPEKNASRIESLEQEKADEEEEGKKDESSCSSEEDEEDDSESEAETDKTKPMASVTNAHTASTQAAPAAVTTPTLSSNQGTPTSPVKKFPTSTTKISPKEEERKDESPASWRLGLRKTGSYGALAEITASKEAQKEKDTAGVIRSASSPRLSSAANSISSLIHRD
notes: as for B3
B6: no binding [4].

B7: M110-(M1-S477), released from GST with thrombin (other)
chain: GSPGMKMADAKQKRNEQLKRWIGSETDLEPPVVKRQKTKVKFDDGAVFLAACSSGDTDEVLKLLHRGADINYANVDGLTALHQACIDDNVDMVKFLVENGANINQPDNEGWIPLHAAASCGYLDIAEFLIGQGAHVGAVNSEGDTPLDIAEEEAMEELLQNEVNRQGVDIEAARKEEERIMLRDARQWLNSGHISDVRHAKSGGTALHVAAAKGYTEVLKLLIQAGYDVNIKDYDGWTPLHAAAHWGKEEACRILVDNLCDMETVNKVGQTAFDVADEDILGYLEELQKKQNLLHSEKRDKKSPLIESTANMENNQPQKTFKNKETLIIEPEKNASRIESLEQEKADEEEEGKKDESSCSSEEDEEDDSESEAETDKTKPMASVTNAHTASTQAAPAAVTTPTLSSNQGTPTSPVKKFPTSTTKISPKEEERKDESPASWRLGLRKTGSYGALAEITASKEAQKEKDTAGVIRSASSPRLSSAANSISSLIHRD
B7: no binding (tested: 30 nM with 1 µM myosin) [3].

B8: GST-M21 (other, not shown: a dimerising Fc or GST; small tags and cut ends)
chain: MSSLFTRSKEYTRSRKSQSDSPPSSPSPIAKTLRHERLSRLEAATTPATSDSYSDRASSRSSAYSRRENRLAALSSRAEEESNRDYKKLYESALSENQKLKSKLQEAQLELADIKSKLEKAAQQKHEKTSDRSSMLEMEKREKRALERKLSEMEEEMKILTELKSDNQRLKDENGALIRVISKLSK
notes: also called undegraded GST-M21 (47 kDa)
B8: binds [3].

B9: GST-M110-(M377-K976), undegraded (other)
chain: MASVTNAHTASTQAAPAAVTTPTLSSNQGTPTSPVKKFPTSTTKISPKEEERKDESPASWRLGLRKTGSYGALAEITASKEAQKEKDTAGVIRSASSPRLSSSLDNKEKEKDNKGTRLAYVAPTIPRRLGSTSDIEEKENRESSNLRTSSSYTRRKWEDDLKKNSSINEGSTYHRSTSNRLWAEDSTEKEKDSAPTAATILVAPTVVSAAASSTTALTTTTAGTLSSTSEVRERRRSYLTPVRDEESESQRKARSRQARQSRRSTQGVTLTDLQEAEKTIGRSRSTRTREQENEEKDKEEKEKQDKEKQEEKKESEVSREDEYKQKYSRTYDETYARYRPVSTSSSSTPSSSSLSTLGSSLYASSQLNRPNSLVGITSAYSRGLTKDNEREGEKKEEEKEGEDKSQPKSIRERRRPREKRRSTGVSFWTQDSDENEQERQSDTEDGSSKRDTQTDSVSRYDSSSTSSSDRYDSLLGRSASYSYLEERKPYGSRLEKDDSTDFKKLYEQILAENEKLKAQLHDTNMELTDLKLQLEKATQRQERFADRSLLEMEKRERRALERRISEMEEELKMLPDLKADNQRLKDENGALIRVISKLSK
notes: also called C-terminal 600 residues of the M110 subunit from rat aorta; not shown: glutathione-S-transferase of vector pGEX-KG with the vector linker
B9: binds [8].

B10: M110 subunit of chicken gizzard PP1M, full length (other)
chain: MKMADAKQKRNEQLKRWIGSETDLEPPVVKRKKTKVKFDDGAVFLAACSSGDTEEVLRLLERGADINYANVDGLTALHQACIDDNVDMVKFLVENGANINQPDNEGWIPLHAAASCGYLDIAEYLISQGAHVGAVNSEGDTPLDIAEEEAMEELLQNEVNRQGVDIEAARKEEERIMLRDARQWLNSGHINDVRHAKSGGTALHVAAAKGYTEVLKLLIQARYDVNIKDYDGWTPLHAAAHWGKEEACRILVENLCDMEAVNKVGQTAFDVADEDILGYLEELQKKQNLLHSEKREKKSPLIESTANLDNNQTQKTFKNKETLIMEQEKNASSIESLEHEKADEEEEGKKDESSCSSEEEEDDDSESEAETDKAKTLANANTTSTQSASMTAPSVAGGQGTPTSPLKKFPTSTTKVSPKEEERKDESPASWRLGLRKTGSYGALAEITASKEAQKEKDSAGVIRSASSPRLSSSLDNKEKEKDGKGTRLAYVAPTIPRRLASTSDIDEKENRDSSASSIRSGSSYARRKWEEDVKKNSLNEGPTSLNTSYQRSGSFGRRQDDLVSSNVPSTASTVTSSAGLQKTLPASANTTTKSTTGSTSAGVQSSTSNRLWAEDSTEKEKDSVPTAVTVPVAPSVVNAAATTTAMTTATSGTVSSTSEVRERRRSYLTPVRDEESESQRKARSRQARQSRRSTQGVTLTDLQEAEKTIGRSRSTRTREQENEEKEKEEKEKQDKEKQEEKKESETKDDDYRQRYSRTVEEPYHRYRPTSTSTSTSSTSSLSTSTSSLSSSSQLNRPNSLIGITSAYSRSGTKESEREGGKKEEEKEEDKSQPKSIRERRRPREKRRSTGVSFWTQDSDENEQEHQSDSEEGTNKKETQSDSLSRYDTGSLSVSSGDRYDSAQGRSGSQSYLEDRKPYCSRLEKEDSTDFKKLYEQILAENEKLKAQLHDTNMELTDLKLQLEKTTQRQERFADRSLLEMEKRVSGKSQYLLGGKKSSRKKDI
notes: Native subunit, met as the M110 band of blotted PP1M or inside PP1M; also called 110 kDa subunit; Ch1
B10: binds [9].

Reference: patent US6884600 (MEDICAL RESEARCH COUNCIL LONDON, dated 2005)
